Experiment: soluble on expression in E. coli; label from the status in PepcDB or PDB records

| Sequence | soluble on expression in E. coli |
| --- | --- |
| KNTPVDAIPDLSDVQVIIKTSYPGQAPQVVEDQVTYPLTTAMLAVPGAETVRGYSFFGDSYVYIIFNDDTDMYWARSRVLEYLSQVAPKLPPNAKPTLGPDATGVGWVYSYVLQDKTGQHDLAELRSLQDWFLKYELQTVDGVSEVATVGGMVKQYQVQIDPAKLRAYNLTLQQVNMAIQNGNQETGASVVEVAEAEHMVRTTGYLTSIEDIKSLPLKVTDKGTPLLLGDIADINLGPQMRRGISELNGEGEAVGGVIVMRYGENASEVISKVKDKLEDLQRSLPDGVEIVTTYDRSTLINAAVDNLWKKLAEEFIVVAIVCALFLFHIRSS | not soluble |
| KPGARIGVGMEYQFNDMISLQPSLFFSQKGAKYSSGFDGNIIDADADVKINQLYLELPVNVQFRFNIADNTNLVIATGPYLACGVGGKAKFDGDASVGGIHINGDDKIDTFGDDGLDYNRFDAGWNIGLGVEFGKILVGLDTQLGFCKVMDGDAPHNANIGITLGYKF | not soluble |
| KQPKKSQPDLFYATDGTPILVGKNNLQNDQLTLRTAKKTDYWLHAKDIPGSHVIIRDAHPSEETLTEAALLAAYFSKYRLSSQVPVDYVQVKHVHK | not soluble |
| KQVYAFDIQKQALEKTQERLHQADLTNAQLILQGHETLDQFVIKAKAGIFNLGYLPAADKSVITRPQTTIEALEKLCGLLVKGGRIAIMIYYGHEGGDLERDAVLDFVIQLNQQEYTAAIYRTLNQVNNPPFLVMIEKLERYRH | not soluble |
| KRAPDGRVLDIAGTEHSLHDLTRGKISLVSFVYLTCGDVNGCPLAMSVFFDVHDASGDLPGLNEDVQLLTISFDPARDTVEAIEAFAYPITSDEQAGDKLNWQVLTTSGPQELRPILDGYGQVVDRSEDQETISHLLRLFLVDRQGDIRNVYGLGFLDPRLLLTDIETLLMEEAGA | soluble |
| KRATQFTASILSLYNSEQMLQKTDPMSVISSAMVAATLDLPIDKNLGYAWIVPYGGKAQFQLGYKGYIQLALRTGQYKSINCIPIHEGELQKWNPLTEEIEIDFEKRESDAVIGYAAYFELINGFRKTVYWTKAQVEKHKKKFSKSDFGWKNDWDAMALKTVLKAVLSKWGILSVEMQKAVIEEDETRERIDITNEADSSEIIDSE | soluble |
| KRRFELRGIVNNISVYDDFAHHPTAIAKTLAGVRAKLSQQESEQEQVGRIFAVLEPRSNTMRSGVHKESLPKSLIDADQVFIYQGEQVTWSVSDLIKQCKPACQVEDNVERLVESIAQQAQAGDIIVVMSNGGFADIHNKLLNRLANIPVPLEDA | not soluble |
| KRTMSISWPLAFSGAFQGSLTGMDNLRFICRIYNVDIDYVKAFTEEFSELGQYLYEPVKRYSSGMKARLAFALSLAVEFDCYLIDEVIAVGDSRFADKCKYELFEKRKDRSIILVSHSHSAMKQYCDNAMVLEKGHMYQFEDMDKAYEYYNSLP | not soluble |
| KSAKEMLEYCNSTGLSLSGMVMQNELALHSKKEIEEYFGHVWQTMQACIDRGMNTEGVLPGPLRVPRRASALRRMLVSSDKLSSDPMNVIDWVNMFALAVNEENAAGGRVVTAPTNGACGIVPAVLAYYDHFIESVSPDIYTRYFLAAGAIGALYKMNASISGAEVGCQGEVGVACSMAAAGLAELLGASPEQVCVAAEIGMEHNLGLTCDPVAGQVQVPCIERNAIASVKAINAARMAMRRTSAPRVSLDKVIETMYETGKDMNAKYRETSRGGLAIK | not soluble |
| KSEHETRLEAKLFEDYSSVVRPVEDHREIVQVTVGLQLIQLINVDEVNQIVTTNVRLKQQWVDYNLKWNPDDYGGVKKIHIPSEKIWRPDVVLYNNADGDFAIVKFTKVLLDYTGHITWTPPAIFKSYCEIIVTHFPFDEQNCSMKLGTRTYDGSAVAINPESDQPDLSNFMESGEWVIKEARGWKHWVFYSCCPTTPYLDITYHFVMQRLP | soluble |
| KVLTIKSCNIHSGIGIRPHAQIELEYQGKIHKEISEGDGGYDAFMNALTKITNRLGISIPKLIDYEVRIPPGGKTDALVETRITWNKSLDLEEDQTFKTMGVHPDQTVAAVHATEKMLNQILQPWQI | soluble |
| KVTKLINDDPTLTHDQKVDQINKVEQAKLDAIKSVDDAQTADAINDALGKGIENINNQYQHGDGVDVRKATAKGDL | not soluble |
| KVWKPGDECFALYWEDNKFYRAEVEALHSSGMTAVVKFTDYGNYEEVLLSNIKPVQTEAWVRDPN | soluble |
| KWFRIDHVQEAHDAGVAVEDLFTRQIKVNHVVTGSDLVIDIHHTLGLEIIVSRIERDGQQTLPTASSRIHMGDVLSVVGTAEELDKAAHVLGDLLPGDPFHGHDLDYRRIFVSNQDLVGIPLAKLRPRLSGILITRVRRGDHDHVATPETVLQLGDRVRVVAAHDRMKSVTALFGDSYRRLSD | not soluble |
| KYIMHQTTPNYTVTLLAALLPWQFFQGAVQGSTTSIISNSNLIKKIYFPRQIMPLSI | not soluble |
| LAIPEKRLSNNIILTKLKIALNLQAEQIISLLESVDFRISKPELSAFSRKVDHQHYRECKDQVLRNLLHAIDKTYHV | not soluble |
| LDFGALPPEINSGRMYCGPGSGPMLAAAAAWDGVAVELGLAATGYASVIAELTGAPWVGAASLSMVAAATPYVAWLSQAAARAEQAGMQAAAAAAAYEAAFVMTVPPPVITANRVLVMTLIATNFFGQNSAAIAVAEAQYAEMWAQDAVAMYGYAAASASASRLIPFAAPPKTTNSAGVVAQVAAVAAMPGLLQRLSSAASVSWSNPNDWWLVRLLGSITPTERTTIVRLLGQSYFATGMAQFFASIAQQLTFGPGGTTAGSGGAWYPTPQFAGLGASRAVSASLARANKIGALSVPPSWVKTTALTESPVAHAVSANPTVGSSHGPHGLLRGLPLGSRITRRSGAFAHRYGFRHSVVARPPSAG | not soluble |
| LDKRWLQICEDASTLCADRVKEVLEGHGFTGLHVAAAVADTMAVGDTLFLGASNPVRDASLVGMPLGGVDIFAARGAAGIDGTVSQAVGVALDVQHRDATAIRADRTVALMGDVTFLHDVGGLLGARPENLTIVVANDDGCGIFETLEIGAPEFRPSFEQAFGTPHGVHIEAIAQAYGVNYLRAETLPELIEALIDTTDSAGFNIIEAVTTRSTRRDIDKALTL | not soluble |
| LDVAKSLDQGLVDRMLQSNTGTDSCPKRLPKGIDSVTLDKIRDLFVGEAALTADEAGEKIGASRTTARRYLEYLISSGELEADLNYGTVGRPERCYKKVIR | not soluble |
| LEKNDLVYMQRAFELNDKVAKDIMIDRTQLVVIDITSTVKEALNVYLQERFSRLPVVADNDKDKVLGYVYNYDLTRQQQVDSSVRVDKLIRDISTTPETTPITQVLQQMIKKRTPIVVVVDEYGGTSGIITDKDIYEEL | not soluble |
| LESLLTLPLAGEARVRILQITDTHLFAQKHEALLGVNTWESYQAVLEAIRPHQHEFDLIVATGDLAQDQSSAAYQHFAEGIASFRAPCVWLPGNHDFQPAMYSALQDAGISPAKRVFIGEQWQILLLDSQVFGVPHGELSEFQLEWLERKLADAPERHTLLLLHHHPLPAGCSWLDQHSLRNAGELDTVLAKFPHVKYLLCGHIHQELDLDWNGRRLLATPSTCVQFKPHCSNFTLDTIAPGWRTLELHADGTLTTEVHRLADTRFQPDTASEGY | soluble |
| LEYSDSIDLLNMDLYDLMKLADRLTHYDAGETVSYAISYNINYTNYCTASCPICAFYVPYKNKRFGKGYELTKEQVRKEALIAKQKGATEIHIVGGFDPDLSIEYYEDIFRTIRGIMPNVAIKAFTIPEIDFIARTTGNSIKETVLRFMDAGMNAHTGGGAEIFDQEIRKYITTPEKVSGEKWLEDAKIIHSLGLKGNSTMTYGHIEGWEHIIDHMIRLRDNQIEVPGFLSFIPLKFSPENTALLRSGRVHGPAPVDKDLKVIALARIIMGRAIRNISVYWVAIGKLTAQIAINGGGNDLVGTAYSEKVFGATDRKTSTTTEELNNMIRQAGKIPGVR | not soluble |
| LFPDELIDQLLAQVQGKDAESILGESGLAGQLKKQLAERMLAAELSHHLAAETEQGRAGNHRNGTSAKTVLTPNGELKLDIPRDRQATFEPQLVGKYQRRLPGFDDHVISMYARGMSVREIQGHLLELYGLQVSPDLISTVTDEVLADVEQWQQRPLEAMYPIVYFDALRLKIRDEGTVKNKAVYLALGIRAEGRKEVLGLWIEQTEGAKFWLKVFNELRTCQEFRVLRPVK | not soluble |

Reference: the DeepSol protein solubility set
